From the supplement of paper PMC9170038

Columns and labels:
[1] = system: K4 kissing-loop RNA reporter; test: apparent KD of K4 kissing-loop reporter; higher = weaker reporter binding; settings: Eterna round: R107;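 further: bound reporter read as fluorescence of individual clusters on recovered sequencing chips by microscopy, with normalized cluster intensities fitted with a binding model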
Experimental: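 RNA-MaP round R107: designed RNA switches with theophylline, tryptophan, arginine or FMN aptamers are transcribed on-chip within common flanks. They are titrated with a labelled K4 kissing-loop RNA reporter in RNA-MaP buffer (100 mM Tris pH 7.5, 80 mM KCl, 4 mM MgCl2), without ligand or with the indicated ligand. Median apparent KD per design.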

MS2 coat protein = test: apparent KD of MS2 coat protein; designed switch direction (-1 OFF switch, 1 ON switch): -1; higher = weaker reporter binding
In short: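 Transcription of designed RNA switches on Illumina chips was done by stalled E. coli RNA polymerase. SNAP-549-labelled MS2 coat protein was then titrated in doubling steps from 0.7 or 1.5 nM to 3 µM, with steps of 0.8–1.5 h at the lowest and 10–20 min at the highest concentration. The per-design median over clusters of curve-fitted normalised fluorescence is reported as apparent KD.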

[2] = input ligand: theophylline 20 uM
[3] = input ligand: tryptophan 2.4 mM
[4] = Eterna round: R95, input ligand: microRNA oligo, concentration not stated

“UAUAUAGUGACGGCCGCCACUAUUGUGAUGUUAUUGUUAGAGUGAUGUUUUGUUGUUUAAUUUUGUAGGACCGGGUUAUAUGUUA [xxzsmullin]” was tested, and the “apparent KD of K4 kissing-loop reporter” value ([1]; input ligand: FMN 200 uM) was 846 nM, the “apparent KD of K4 kissing-loop reporter” value ([1]; input ligand: arginine 13.2 mM) was 451 nM and the “apparent KD of K4 kissing-loop reporter” value ([1]; input ligand: none) was 568 nM. The “apparent KD of K4 kissing-loop reporter” value [1, 2] was 530 nM and the “apparent KD of K4 kissing-loop reporter” value [1, 3] was 543 nM.

For “UGCUUUAGAAUACAAGGUAUUUACACUGAUACCAGUCAGUUAAAUGACCCUUGGCAGCAGUGUCAGUGAUGUUGACACAACACAU [Theo A Ex t4]”, the “apparent KD of K4 kissing-loop reporter” value ([1]; input ligand: FMN 200 uM) was 183 nM, the “apparent KD of K4 kissing-loop reporter” value ([1]; input ligand: arginine 13.2 mM) was 173 nM and the “apparent KD of K4 kissing-loop reporter” value ([1]; input ligand: none) was 180 nM. For the same sequence, the “apparent KD of K4 kissing-loop reporter” value [1, 2] was 157 nM and the “apparent KD of K4 kissing-loop reporter” value [1, 3] was 164 nM.

In the case of “CGUUUAUAGCAGGAUACCAGUACCCAUUAUGUACGUUUAUAGUAGAGUGAUGUUCUAAAGUACCCUUGGCAGCUUCCUGUGUCCC [ExTheophylB.Ab]”, the “apparent KD of K4 kissing-loop reporter” value ([1]; input ligand: FMN 200 uM) is reported as 163 nM, the “apparent KD of K4 kissing-loop reporter” value ([1]; input ligand: arginine 13.2 mM) is reported as 178 nM and the “apparent KD of K4 kissing-loop reporter” value ([1]; input ligand: none) is reported as 190 nM. The “apparent KD of K4 kissing-loop reporter” value [1, 2] was 198 nM and the “apparent KD of K4 kissing-loop reporter” value [1, 3] was 150 nM.

For “UCCUGCAAUCAACCACGAAAGUGGUUCGAUACCAGAGUCGAAAGACUCCCUUGGCAGCGAGUGAUGUUCGAGCAGGUAAAAUAAA”, the “apparent KD of K4 kissing-loop reporter” value ([1]; input ligand: FMN 200 uM) was 862 nM, the “apparent KD of K4 kissing-loop reporter” value ([1]; input ligand: arginine 13.2 mM) was 642 nM and the “apparent KD of K4 kissing-loop reporter” value ([1]; input ligand: none) was 754 nM. The “apparent KD of K4 kissing-loop reporter” value [1, 2] was 646 nM and the “apparent KD of K4 kissing-loop reporter” value [1, 3] was 602 nM.

“AUUUUUUUGUCAGGAUAUUAGUGUGGGUUUGGUUUGUUAGUGAUGUUGAUAUUUGUUUUAUGUAUUUAAGAAGGGAUUUAGCGGU [zzdxemullin]” was tested, and the “apparent KD of K4 kissing-loop reporter” value ([1]; input ligand: FMN 200 uM) was 556 nM, the “apparent KD of K4 kissing-loop reporter” value ([1]; input ligand: arginine 13.2 mM) was 330 nM and the “apparent KD of K4 kissing-loop reporter” value ([1]; input ligand: none) was 431 nM. The “apparent KD of K4 kissing-loop reporter” value [1, 2] was 443 nM and the “apparent KD of K4 kissing-loop reporter” value [1, 3] was 285 nM.

“AAACAUUGGUGCGAUACCAGCUGAUCGGAAACGAUCAUGCUGGAGUGAUGUUCCAGGAAAAGCCCUUGGCAGCGCACCGAUGAAA [MAT - Same State Theophlline B - Mod of Eli - D29]” was tested, and the “apparent KD of K4 kissing-loop reporter” value ([1]; input ligand: FMN 200 uM) was 128 nM, the “apparent KD of K4 kissing-loop reporter” value ([1]; input ligand: arginine 13.2 mM) was 79.8 nM and the “apparent KD of K4 kissing-loop reporter” value ([1]; input ligand: none) was 78.5 nM. For the same sequence, the “apparent KD of K4 kissing-loop reporter” value [1, 2] was 275 nM and the “apparent KD of K4 kissing-loop reporter” value [1, 3] was 95.9 nM.

In the case of “GGGCGCGGCGCGGCCGCCACUGCGCCUGGGUGCUCGCUGAGUGAUGUUCGUCGGCGGUUGGGUGGUAGGACCGGGUGCUGGCCGG [BDazzled - #13 SS Tryptophan B]”, the “apparent KD of K4 kissing-loop reporter” value ([1]; input ligand: FMN 200 uM) is reported as 654 nM, the “apparent KD of K4 kissing-loop reporter” value ([1]; input ligand: arginine 13.2 mM) is reported as 463 nM and the “apparent KD of K4 kissing-loop reporter” value ([1]; input ligand: none) is reported as 525 nM. For the same sequence, the “apparent KD of K4 kissing-loop reporter” value [1, 2] was 522 nM and the “apparent KD of K4 kissing-loop reporter” value [1, 3] was 527 nM.

For “CCUCACGUAGGACUAGUGAUGUUAGACUACCGAGGACCGGUACGGCCGCCACUCGUCGUACAAGAUAACCAUCUGCCAGUAUACA”, the “apparent KD of K4 kissing-loop reporter” value ([1]; input ligand: FMN 200 uM) was 122 nM, the “apparent KD of K4 kissing-loop reporter” value ([1]; input ligand: arginine 13.2 mM) was 103 nM and the “apparent KD of K4 kissing-loop reporter” value ([1]; input ligand: none) was 117 nM. The “apparent KD of K4 kissing-loop reporter” value [1, 2] was 107 nM and the “apparent KD of K4 kissing-loop reporter” value [1, 3] was 168 nM.

For “CGGCUCUAUCCUAGUAUUAAGAGGGAGUUGCGAGGACCGGUACGGCCGCCACUCGAAGUAGUUUGGCCAGUGAUGUUGGUCUUAC [Qubeatonza]”, the “apparent KD of K4 kissing-loop reporter” value ([1]; input ligand: FMN 200 uM) was 223 nM, the “apparent KD of K4 kissing-loop reporter” value ([1]; input ligand: arginine 13.2 mM) was 213 nM and the “apparent KD of K4 kissing-loop reporter” value ([1]; input ligand: none) was 129 nM. For the same sequence, the “apparent KD of K4 kissing-loop reporter” value [1, 2] was 152 nM and the “apparent KD of K4 kissing-loop reporter” value [1, 3] was 421 nM.

In the case of “CUUGAGACAUGAGUGAUGUUCAUGUCCGAAGGAGCGUGCGAAAGCACAGGUAGGUCGCGGACGUGAGUGAUGUUCAUGUGAGCGA [KL-XArg-A10 #analogue]”, the “apparent KD of K4 kissing-loop reporter” value ([1]; input ligand: FMN 200 uM) is reported as 236 nM, the “apparent KD of K4 kissing-loop reporter” value ([1]; input ligand: arginine 13.2 mM) is reported as 163 nM and the “apparent KD of K4 kissing-loop reporter” value ([1]; input ligand: none) is reported as 202 nM. The “apparent KD of K4 kissing-loop reporter” value [1, 2] was 223 nM and the “apparent KD of K4 kissing-loop reporter” value [1, 3] was 201 nM.

With “CGAUAGGGAAGUCGAUUGCUCACUGGUAAACGAGGACCGGUACGGCCGCCACUCGGGUCCAGUGAUGUUGGACUUUGUGGCGGGC [Edladian]” the “apparent KD of K4 kissing-loop reporter” value ([1]; input ligand: FMN 200 uM) was 117 nM, the “apparent KD of K4 kissing-loop reporter” value ([1]; input ligand: arginine 13.2 mM) was 99.5 nM and the “apparent KD of K4 kissing-loop reporter” value ([1]; input ligand: none) was 104 nM. For the same sequence, the “apparent KD of K4 kissing-loop reporter” value [1, 2] was 99.5 nM and the “apparent KD of K4 kissing-loop reporter” value [1, 3] was 109 nM.

With “CCCGUUGCGGCGGCCGCCACUGACUUAUUGAUUAGGUUGCCAGUGAUGUUGGCCACCGGUCAAUACAGGACCGGGCCAUAGCGGG [Ceisreatte]” the “apparent KD of K4 kissing-loop reporter” value ([1]; input ligand: FMN 200 uM) was 157 nM, the “apparent KD of K4 kissing-loop reporter” value ([1]; input ligand: arginine 13.2 mM) was 124 nM and the “apparent KD of K4 kissing-loop reporter” value ([1]; input ligand: none) was 128 nM. The “apparent KD of K4 kissing-loop reporter” value [1, 2] was 134 nM and the “apparent KD of K4 kissing-loop reporter” value [1, 3] was 99.1 nM.

In the case of “GGUCGAGUGAUGUUCGAUGUAGUGCAUUCAGAGGAUAUAGGAUGGGCUAGAAGGCUGAAAGGUGCUUCGAGUGAUGUUCGAGGAU [Exclusion FMN A GF 3]”, the “apparent KD of K4 kissing-loop reporter” value ([1]; input ligand: FMN 200 uM) is reported as 105 nM, the “apparent KD of K4 kissing-loop reporter” value ([1]; input ligand: arginine 13.2 mM) is reported as 80.7 nM and the “apparent KD of K4 kissing-loop reporter” value ([1]; input ligand: none) is reported as 126 nM. The “apparent KD of K4 kissing-loop reporter” value [1, 2] was 115 nM and the “apparent KD of K4 kissing-loop reporter” value [1, 3] was 89 nM.

In the case of “ACUGAGCAUGCGGCCGCCACUUCAGAACGUCGCCCAAAGGGCGACGCCUCCACAGUGAUGUUGUGGAGGACCGGGCAUGUUCAGA [Omei KL Tryp B Exc A v2]”, the “apparent KD of K4 kissing-loop reporter” value ([1]; input ligand: FMN 200 uM) is reported as 152 nM, the “apparent KD of K4 kissing-loop reporter” value ([1]; input ligand: arginine 13.2 mM) is reported as 113 nM and the “apparent KD of K4 kissing-loop reporter” value ([1]; input ligand: none) is reported as 136 nM. For the same sequence, the “apparent KD of K4 kissing-loop reporter” value [1, 2] was 111 nM and the “apparent KD of K4 kissing-loop reporter” value [1, 3] was 144 nM.

“GCAGUGAUGUUGCUGAUGUACAGUGGGAUACGAGGACCGGUACGGCCGCCACUCGUACAGAACUUGUUAAUACAUCGAUAGGUGA [XIII]” was tested, and the “apparent KD of K4 kissing-loop reporter” value ([1]; input ligand: FMN 200 uM) was 702 nM, the “apparent KD of K4 kissing-loop reporter” value ([1]; input ligand: arginine 13.2 mM) was 759 nM and the “apparent KD of K4 kissing-loop reporter” value ([1]; input ligand: none) was 880 nM. For the same sequence, the “apparent KD of K4 kissing-loop reporter” value [1, 2] was 837 nM and the “apparent KD of K4 kissing-loop reporter” value [1, 3] was 564 nM.

With “UUUAAUUGUGACAUGGGUGACAUGAGGAUCACCCAUGUCACAAGCUUUUUGUUCGUCUUAUAAUUAACCCAUGUCAC [Stov1/13-B1] (Eterna round: R97, puzzle: Sensor, turn-off variant 1)” the “apparent KD of MS2 coat protein” value (MS2 coat protein; input ligand: FMN 200 uM) was 37.8 nM and the “apparent KD of MS2 coat protein” value (MS2 coat protein; input ligand: none) was 123 nM.

“AUAUUAAGUGUGAGGAUAUGCUGGUCCUUGGAUCAGCAGAAGGCACAUGAGGAUCACCCAUGUAAUAUAUUUAA [Mat - Exclusion 4 - JL Mod - D48] (puzzle: Brourd's mod of Exclusion 4)” was tested, and the “apparent KD of MS2 coat protein” value (MS2 coat protein; [4]) was 87.2 nM.

For “GGCCGUAAUAAGGAUAUCACUAGCUUCGGCUAGUGAGAAGGUAUUACAUGAGGAUCACCCAUGUGAUUAGGCCA [E6/5-B1] (Eterna round: R97, puzzle: Exclusion 6)”, the “apparent KD of MS2 coat protein” value (MS2 coat protein; input ligand: FMN 200 uM) was 98.1 nM and the “apparent KD of MS2 coat protein” value (MS2 coat protein; input ligand: none) was 25.2 nM.

In the case of “AGUGCUGCAGGAUAUUCUAUUAAUUACAUGAGGAUCACCCAUGUGAAUGGACAAGGGUGUGAAGAAGGGUGGUGCG [Omei Ex5 A17h] (Eterna round: R97, puzzle: Exclusion 5)”, the “apparent KD of MS2 coat protein” value (MS2 coat protein; input ligand: FMN 200 uM) is reported as 375 nM and the “apparent KD of MS2 coat protein” value (MS2 coat protein; input ligand: none) is reported as 605 nM.

“AGAAAUGCCCAUGGCCACAAGCUUUUUGCUUGUCUUACUACAUGAGGAUCACCCAUGUAACAUGGGCUCCUGACAAA [Soarriat] (puzzle: Sensor v3, turn-off variant 2)” was tested, and the “apparent KD of MS2 coat protein” value (MS2 coat protein; Eterna round: R95, input ligand: FMN 200 uM) was 12.9 nM, the “apparent KD of MS2 coat protein” value (MS2 coat protein; [4]) was 9.12 nM and the “apparent KD of MS2 coat protein” value (MS2 coat protein; Eterna round: R95, input ligand: none) was 10.9 nM.

In the case of “CAGUACUGAGGAUAUACAUGAGGAUCACCCAUGUGUUCCAGCUAGGAAACUAGCUAAAGUAGAAGGCAGUACUG [salish99_ex3_r3_092x] (Eterna round: R96, puzzle: Exclusion 3)”, the “apparent KD of MS2 coat protein” value (MS2 coat protein; input ligand: microRNA oligo, concentration not stated) is reported as 17.7 nM.
